The source of these data is PMC6917914 (Nature chemical biology, 2019).

For the assay, the target named is His6-DDA1 (full-length human DDA1) (human, UniProt Q9BW61 1-102). Put plainly: crystal structure.

B1: DCAF15_(split) (Strep II Avi-DCAF15 NTD residues 30-264 with Strep II Avi-DCAF15 CTD residues 383-600) (domain or fragment)
chain 1: GRRREHVLKQLERVKISGQLSPRLFRKLPPRVCVSLKNIVDEDFLYAGHIFLGFSKCGRYVLSYTSSSGDDDFSFYIYHLYWWEFNVHSKLKLVRQVRLFQDEEIYSDLYLTVCEWPSDASKVIVFGFNTRSANGMLMNMMMMSDENHRDIYVSTVAVPPPGRCAACQDASRAHPGDPNAQCLRHGFMLHTKYQVVYPFPTFQPAFQLKKDQVVLLNTSYSLVACAVSVHSAGDR
chain 2: EPGYVNYTKLYYVLESGEGTEPEDELEDDKISLPFVVTDLRGRNLRPMRERTAVQGQYLTVEQLTLDFEYVINEVIRHDATWGHQFCSFSDYDIVILEVCPETNQVLINIGLLLLAFPSPTEEGQLRPKTYHTSLKVAWDLNTGIFETVSVGDLTEVKGQTSGSVWSSYRKSCVDMVMKWLVPESSGRYVNRMTNEALHKGCSLKVLADSERYTWIVL
Consider B1, for which the binding result is “binds”.
